Experimental data reported in paper PMC3082538, “High-Throughput Protein Expression Using a Combination of Ligation-Independent Cloning (LIC) and Infrared Fluorescent Protein (IFP) Detection” (PLoS ONE, 2011).

Tests used:
Assay in all cases: pull-down; 5 µg purified GST or GST-GRF fusion immobilised on BSA-pretreated magnetic glutathione agarose beads (MagneGST) with 0.5% Nonidet-P40 and 10% BSA; incubated with 1 µg purified IFP fusion protein, room temperature, 60 min; five washes with 0.5% Nonidet-P40; eluate read by infrared imaging (700 nm) in microtiter plates, then SDS-PAGE and in-gel detection
Settings in all cases: both partners purified
GST-GRF1 fusion protein = target: T1, GST-GRF1 fusion protein (Arabidopsis thaliana, UniProt P42643 1-267)
T1 construct: GRF1 of Arabidopsis thaliana (AGI At4g09000), open reading frame in pDEST15; Printed size 58 kDa; Gateway attB linker between GST and GRF1; source: E. coli BL21 (DE3) pLysS, purified (GSTrap HP column, Äkta-FPLC); not shown: GST, N-terminal, kept
T1 sequence (looked up): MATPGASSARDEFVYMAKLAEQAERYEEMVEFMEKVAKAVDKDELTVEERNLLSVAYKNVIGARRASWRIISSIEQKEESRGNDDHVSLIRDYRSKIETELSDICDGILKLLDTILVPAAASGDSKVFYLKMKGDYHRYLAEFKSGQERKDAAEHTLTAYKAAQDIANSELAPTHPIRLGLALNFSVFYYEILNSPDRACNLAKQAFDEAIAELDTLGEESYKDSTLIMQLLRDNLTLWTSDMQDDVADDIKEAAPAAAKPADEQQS

GST-GRF2 fusion protein = target: T2, GST-GRF2 fusion protein (Arabidopsis thaliana, UniProt Q01525 1-259)
T2 construct: GRF2 of Arabidopsis thaliana (AGI At1g78300), open reading frame in pDEST15; Printed size 57 kDa; Gateway attB linker between GST and GRF2; source: E. coli BL21 (DE3) pLysS, purified (GSTrap HP column, Äkta-FPLC); not shown: GST, N-terminal, kept
T2 sequence (looked up): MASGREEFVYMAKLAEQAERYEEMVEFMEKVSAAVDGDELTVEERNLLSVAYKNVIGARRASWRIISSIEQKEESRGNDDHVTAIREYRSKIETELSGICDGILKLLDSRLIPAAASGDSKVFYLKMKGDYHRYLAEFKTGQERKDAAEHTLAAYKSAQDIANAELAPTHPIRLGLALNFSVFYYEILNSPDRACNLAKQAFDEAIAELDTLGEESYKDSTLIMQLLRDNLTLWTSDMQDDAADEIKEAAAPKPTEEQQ

GST-GRF3 fusion protein = target: T3, GST-GRF3 fusion protein (Arabidopsis thaliana, UniProt P42644 1-255)
T3 construct: GRF3 of Arabidopsis thaliana (AGI At5g38480), open reading frame in pDEST15; Printed size 56 kDa; Gateway attB linker between GST and GRF3; source: E. coli BL21 (DE3) pLysS, purified (GSTrap HP column, Äkta-FPLC); not shown: GST, N-terminal, kept
T3 sequence (looked up): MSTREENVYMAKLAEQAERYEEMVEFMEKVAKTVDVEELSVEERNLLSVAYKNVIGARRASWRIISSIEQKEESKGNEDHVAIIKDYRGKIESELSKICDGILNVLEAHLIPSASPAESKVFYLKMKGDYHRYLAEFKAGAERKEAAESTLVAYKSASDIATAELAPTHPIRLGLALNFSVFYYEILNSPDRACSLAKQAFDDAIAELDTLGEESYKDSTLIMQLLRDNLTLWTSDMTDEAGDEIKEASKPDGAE

GST-GRF4 fusion protein = target: T4, GST-GRF4 fusion protein (Arabidopsis thaliana, UniProt P46077 1-267)
T4 construct: GRF4 of Arabidopsis thaliana (AGI At1g35160), open reading frame in pDEST15; Printed size 58 kDa; Gateway attB linker between GST and GRF4; source: E. coli BL21 (DE3) pLysS, purified (GSTrap HP column, Äkta-FPLC); not shown: GST, N-terminal, kept
T4 sequence (looked up): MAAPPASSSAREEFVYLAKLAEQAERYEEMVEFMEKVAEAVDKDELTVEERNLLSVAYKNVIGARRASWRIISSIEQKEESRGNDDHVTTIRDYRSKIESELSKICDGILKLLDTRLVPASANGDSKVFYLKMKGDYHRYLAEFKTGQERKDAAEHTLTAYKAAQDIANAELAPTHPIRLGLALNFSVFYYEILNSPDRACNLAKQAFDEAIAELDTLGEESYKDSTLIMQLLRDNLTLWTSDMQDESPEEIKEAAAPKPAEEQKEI

GST-GRF5 fusion protein = target: T5, GST-GRF5 fusion protein (Arabidopsis thaliana, UniProt P42645 1-268)
T5 construct: GRF5 of Arabidopsis thaliana (AGI At5g16050), open reading frame in pDEST15; Printed size 58 kDa; Gateway attB linker between GST and GRF5; source: E. coli BL21 (DE3) pLysS, purified (GSTrap HP column, Äkta-FPLC); not shown: GST, N-terminal, kept
T5 sequence (looked up): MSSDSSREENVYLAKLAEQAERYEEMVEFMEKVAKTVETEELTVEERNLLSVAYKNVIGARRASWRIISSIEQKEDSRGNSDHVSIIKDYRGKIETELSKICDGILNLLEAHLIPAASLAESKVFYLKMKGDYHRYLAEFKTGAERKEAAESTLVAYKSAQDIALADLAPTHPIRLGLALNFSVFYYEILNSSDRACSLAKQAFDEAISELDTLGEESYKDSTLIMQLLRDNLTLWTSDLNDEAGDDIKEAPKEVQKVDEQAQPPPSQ

GST-GRF6 fusion protein = target: T6, GST-GRF6 fusion protein (Arabidopsis thaliana, UniProt P48349 1-248)
T6 construct: GRF6 of Arabidopsis thaliana (AGI At5g10450), open reading frame in pDEST15; Printed size 56 kDa; Gateway attB linker between GST and GRF6; source: E. coli BL21 (DE3) pLysS, purified (GSTrap HP column, Äkta-FPLC); not shown: GST, N-terminal, kept
T6 sequence (looked up): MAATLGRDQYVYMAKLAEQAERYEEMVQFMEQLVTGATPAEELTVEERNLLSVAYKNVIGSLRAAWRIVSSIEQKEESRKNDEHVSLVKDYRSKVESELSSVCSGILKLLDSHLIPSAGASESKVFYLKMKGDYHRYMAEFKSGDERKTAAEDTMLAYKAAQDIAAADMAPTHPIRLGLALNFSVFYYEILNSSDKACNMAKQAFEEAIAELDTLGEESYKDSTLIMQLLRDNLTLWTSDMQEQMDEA

Measured: binding result

B1: TPK1(1-79)-TEV-IFP-6xHis fusion protein (domain or fragment, Arabidopsis thaliana, UniProt Q8LBL1 1-79, looked up)
chain: MSSDAARTPLLPTEKIDTMAQDFNLNSRTSSSRKRRLRRSRSAPRGDCMYNDDVKIDEPPPHPSKIPMFSDLNPNLRRV
notes: potassium channel TPK1 of Arabidopsis thaliana (AGI At5g55630), N-terminal cytosolic part, amino acids 1-79; Between TPK1(1-79) and the IFP stand residues from the LIC site and the TEV cleavage site ENLYFQG (LC2 vector: ProteinX-TEV-IFP-6xHis); Printed size 47.6-48 kDa; The IFP moiety carries the chromophore biliverdin (cells grown with hemin); also called TPK1-TEV-IFP-6xHis; …
binds: all assays above
